Assay results from US20070135335A1 (AUTOGEN RESEARCH, published 2007).

Tests used:
[1] = target: T1, GST-CLK4 (recombinant human CLK4 fused to glutathione S-transferase, pGEX4T-1) (human, UniProt Q9HAZ1 1-481); test: SPR (Biacore J), Beacon immobilised on CM5 chip, GST-CLK as analyte
T1 construct: Expressed in E. coli BL21; whole entry named; not shown: glutathione S-transferase tag of expression vector pGEX4T-1
Protocol: (§1) FIG. 3 is a graphical representation showing the interaction between Beacon and human CLK1, 2 and 4. SPR analyses were performed as described in the Examples. Beacon immobilized on CM5 sensor chip generated 1800-2100 RU. Analyte samples injected and the heat treatments are as listed here:—
(§2) SPR analyses were performed with minor variations as described in Walder et al., 2002, supra using a Biacore J instrument (Biacore AB). Beacon was attached to a CM5 sensor chip at pH 5.5 by an amine coupling reaction. HBS-EP (10 mM Hepes pH 7.4/0.15 M NaCl/3 mM EDTA/0.005% Polysorbate 20) was used as running buffer. Flow cells 1 and 2 in the sensor chip were treated in the same manner except that ligand was absent in flow cell 2 which served as a reference cell. Binding experiments were performed in dual channel mode and the reference subtracted sensorgrams represented true binding patterns between ligand and analyte. Test samples diluted to 130 μl in running buffer were injected over a fixed duration of 4 min. For heat treatments, proteins were initially diluted to 20 μl in running buffer, incubated at 65 or 70° C. for 10 min, centrifuged for 30 sec, reconstituted to a final volume of 130 μl with running buffer and injected as usual. Between injections, chips were regenerated using 40 μl of 10 mM NaOH.

[2] = target: T2, GST-CLK1 (recombinant human CLK1 fused to glutathione S-transferase, pGEX4T-1) (human, UniProt P49759 1-484); test: as above
T2 construct: Expressed in E. coli BL21; whole entry named; not shown: glutathione S-transferase tag of expression vector pGEX4T-1
Protocol: as §1, §2

[3] = target: T3, GST-CLK2 (recombinant human CLK2 fused to glutathione S-transferase, pGEX4T-1) (human, UniProt P49760 1-499); test: as above
T3 construct: Expressed in E. coli BL21; whole entry named; not shown: glutathione S-transferase tag of expression vector pGEX4T-1
Protocol: as §1, §2

maltose binding protein = maltose binding protein (UniProt P0AEX9 27-396 = MBP); test: SPR (Biacore J), Beacon immobilised on CM5 chip
Protocol: as §2

[4] = target: the molecule itself; test: SPR (Biacore J), Beacon immobilised on CM5 chip
Protocol: as §2

[5] = target: T4, GST (recombinant glutathione S-transferase, pGEX2T) (UniProt P08515 1-218 = GST); test: SPR (Biacore J), Beacon immobilised on CM5 chip
T4 construct: Control protein in SPR
Protocol: as §2

bovine serum albumin = target: T5, bovine serum albumin (bovine, UniProt P02769 25-607); test: SPR (Biacore J), Beacon immobilised on CM5 chip
T5 construct: Unrelated control protein in SPR
Protocol: as §2

T4 sequence (P08515 whole entry): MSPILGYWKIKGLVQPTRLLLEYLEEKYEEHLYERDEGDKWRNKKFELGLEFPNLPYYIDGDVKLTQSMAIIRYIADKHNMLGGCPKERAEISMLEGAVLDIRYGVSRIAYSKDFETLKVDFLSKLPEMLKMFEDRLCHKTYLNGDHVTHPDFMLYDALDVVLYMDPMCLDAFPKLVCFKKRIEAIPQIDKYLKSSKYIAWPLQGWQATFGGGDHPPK
T1 sequence (Q9HAZ1 whole entry, the tested form may be a part): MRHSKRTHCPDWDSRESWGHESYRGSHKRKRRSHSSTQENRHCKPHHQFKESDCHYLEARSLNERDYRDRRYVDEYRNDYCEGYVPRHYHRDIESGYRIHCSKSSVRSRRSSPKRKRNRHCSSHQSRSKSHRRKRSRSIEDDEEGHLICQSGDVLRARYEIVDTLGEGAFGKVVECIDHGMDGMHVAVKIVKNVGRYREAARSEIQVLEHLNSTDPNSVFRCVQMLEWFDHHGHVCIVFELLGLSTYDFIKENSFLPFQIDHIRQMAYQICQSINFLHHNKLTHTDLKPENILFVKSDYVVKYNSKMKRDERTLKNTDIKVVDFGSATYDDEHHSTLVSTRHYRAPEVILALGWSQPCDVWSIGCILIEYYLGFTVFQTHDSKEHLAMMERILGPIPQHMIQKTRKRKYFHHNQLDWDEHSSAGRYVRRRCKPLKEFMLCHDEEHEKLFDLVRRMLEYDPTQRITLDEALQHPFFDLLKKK
T3 sequence (P49760 whole entry, the tested form may be a part): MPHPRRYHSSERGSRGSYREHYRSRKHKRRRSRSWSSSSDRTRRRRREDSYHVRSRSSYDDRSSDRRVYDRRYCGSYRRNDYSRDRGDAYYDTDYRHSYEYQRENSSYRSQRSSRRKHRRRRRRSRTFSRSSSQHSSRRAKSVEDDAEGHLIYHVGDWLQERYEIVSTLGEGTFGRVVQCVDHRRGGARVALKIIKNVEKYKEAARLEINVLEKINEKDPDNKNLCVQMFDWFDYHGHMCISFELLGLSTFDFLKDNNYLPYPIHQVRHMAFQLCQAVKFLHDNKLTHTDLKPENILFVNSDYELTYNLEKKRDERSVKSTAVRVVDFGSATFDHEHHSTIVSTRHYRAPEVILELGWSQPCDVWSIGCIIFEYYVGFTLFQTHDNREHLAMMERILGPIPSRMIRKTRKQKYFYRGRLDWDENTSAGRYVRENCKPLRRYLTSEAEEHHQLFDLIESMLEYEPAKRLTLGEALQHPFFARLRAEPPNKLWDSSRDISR
T5 sequence (P02769 25-607 limits assumed): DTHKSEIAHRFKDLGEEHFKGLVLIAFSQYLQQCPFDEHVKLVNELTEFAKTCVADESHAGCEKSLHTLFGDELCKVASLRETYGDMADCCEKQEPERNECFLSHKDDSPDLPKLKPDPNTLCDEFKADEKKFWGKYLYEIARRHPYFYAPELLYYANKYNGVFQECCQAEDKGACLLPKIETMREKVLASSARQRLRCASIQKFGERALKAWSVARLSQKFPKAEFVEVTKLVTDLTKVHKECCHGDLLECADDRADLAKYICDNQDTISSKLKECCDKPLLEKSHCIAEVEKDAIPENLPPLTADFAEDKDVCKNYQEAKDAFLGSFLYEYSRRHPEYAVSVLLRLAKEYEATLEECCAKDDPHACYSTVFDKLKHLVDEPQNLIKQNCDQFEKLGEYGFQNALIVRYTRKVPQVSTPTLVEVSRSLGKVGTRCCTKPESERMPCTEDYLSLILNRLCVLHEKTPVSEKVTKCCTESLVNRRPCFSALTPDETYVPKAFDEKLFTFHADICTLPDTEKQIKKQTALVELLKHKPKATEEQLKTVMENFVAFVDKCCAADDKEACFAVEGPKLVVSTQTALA
T2 sequence (P49759 whole entry, the tested form may be a part): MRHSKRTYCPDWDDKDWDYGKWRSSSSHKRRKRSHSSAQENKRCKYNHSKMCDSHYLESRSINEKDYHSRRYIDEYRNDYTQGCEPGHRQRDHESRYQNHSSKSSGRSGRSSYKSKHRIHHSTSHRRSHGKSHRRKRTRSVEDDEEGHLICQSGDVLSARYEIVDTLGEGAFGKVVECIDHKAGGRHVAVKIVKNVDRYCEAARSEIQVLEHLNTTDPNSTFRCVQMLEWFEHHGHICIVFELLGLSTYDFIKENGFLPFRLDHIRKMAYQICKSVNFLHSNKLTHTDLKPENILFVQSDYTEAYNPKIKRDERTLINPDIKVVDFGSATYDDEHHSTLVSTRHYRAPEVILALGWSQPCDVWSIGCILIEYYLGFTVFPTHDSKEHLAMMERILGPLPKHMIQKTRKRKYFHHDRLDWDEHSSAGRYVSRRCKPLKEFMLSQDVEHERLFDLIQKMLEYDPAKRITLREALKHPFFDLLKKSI

B1: Beacon (recombinant, expressed as GST-Beacon in E. coli, GST tag cleaved off with thrombin) (ligand)
chain: MIEVVCNDRLGKKVRVKCNTDDTIGDLKKLIAAQTGTRWNKIVLKKWYTIFKDHVSLGDYEIHDGMNLELYYQ
notes: Immobilised on a CM5 chip by amine coupling (SPR); also injected as analyte over itself
- binding result [1]: binds
- binding result [2]: binds
- binding result [3]: binds
- binding result (maltose binding protein): no binding
- binding result [4]: no binding
- binding result [5]: no binding
- binding result (bovine serum albumin): no binding
